In PMC6213154, “Mapping the Contact Sites of the Escherichia coli Division-Initiating Proteins FtsZ and ZapA by BAMG Cross-Linking and Site-Directed Mutagenesis” (International Journal of Molecular Sciences, 2018):

B1: FtsZ (Filamenting temperature sensitive Z), Escherichia coli (natural protein, E. coli, UniProt P0A9A6 1-383, looked up)
chain: MFEPMELTNDAVIKVIGVGGGGGNAVEHMVRERIEGVEFFAVNTDAQALRKTAVGQTIQIGSGITKGLGAGANPEVGRNAADEDRDALRAALEGADMVFIAAGMGGGTGTGAAPVVAEVAKDLGILTVAVVTKPFNFEGKKRMAFAEQGITELSKHVDSLITIPNDKLLKVLGRGISLLDAFGAANDVLKGAVQGIAELITRPGLMNVDFADVRTVMSEMGYAMMGSGVASGEDRAEEAAEMAISSPLLEDIDLSGARGVLVNITAGFDLRLDEFETVGNTIRAFASDNATVVIGTSLDPDMNDELRVTVVATGIGMDKRPEITLVTNKQVQQPVMDRYQQHGMAPLTQEQKPVAKVVNDNAPQTAKEPDYLDIPAFLRKQAD
notes: FtsZ, Escherichia coli; tryptic peptides up to the C-terminal KQAD (residues 380-383) were identified; In the cross-linking experiments a 1:1 mixture of 14N- and 15N-labelled FtsZ was used (about 95% 15N); Polymerised with GTP into protofilaments; also called ^14N-FtsZ; ^15N-FtsZ; source: E. coli BL21(DE3) pRRE6, isolated as described [52]

Columns and labels:
[1] = target: B1; experiment: cross-linking; BAMG (100-150 uM) added 30-60 s after GTP, 30 min at 30 °C; trypsin digest, enrichment on ARCO resin, SCX, LC-MS/MS; 3.4 uM FtsZ (14N:15N 1:1), 6.8 uM ZapA, 50 mM HEPES pH 7.5, 50 mM KCl, 5 mM MgCl2, 60 uM GTP; no Ca2+; details: both partners purified
[2] = target: the molecule itself; experiment: as above
[3] = target: the molecule itself; experiment: cross-linking; BAMG, LC-MS/MS; bundling conditions: FtsZ (14N:15N 1:1) without ZapA, 10 mM CaCl2, 30 uM GTP, polymerization buffer pH 7.5, 30 °C

binding result [1] | Binder | stoichiometry N [2] | binding result [3]
binds | ZapA (Z associated protein A), Escherichia coli (natural protein, E. coli, ZapA, Escherichia coli; source: isolated using a His-tagged version, His-tag removed by proteolysis, as described [8]) MSAQPVDIQIFGRSLRVNCPPDQRDALNQAADDLNQRLQDLKERTRVTNTEQLVFIAALNISYELAQEKAKTRDYAASMEQRIRMLQQTIEQALLEQGRITEKTNQNFE | 4 | –
– | B1 | – | binds
